# Laboratory results taken from PMC4057782, “tRNA synthetase counteracts c-Myc to develop functional vasculature”.
# B1: VEGFA promoter SPR duplex (dsDNA)
# DNA 1: GGCGGGGCGGAGCCATGCGCCCCCCCCTTTATA
# DNA 2: AAAGGGGGGGGCGCATGGCTCCGCCCCGCC
# modifications: 3' biotin on strand 1
# B2: VEGFA minimal SerRS site (-59 to -38) (dsDNA)
# DNA 1: GGGCGGAGCCATGCGCCCCCCC
# DNA 2: GGGGGGGCGCATGGCTCCGCCC
# B3: 27-bp E-box double mutant CTTACG (dsDNA)
# DNA 1: GGCGGGGCGGAGCCTTACGCCCCCCCC
# DNA 2: GGGGGGGGCGTAAGGCTCCGCCCCGCC
# B4: VEGFA promoter 27-bp (-62 to -36) (dsDNA)
# DNA 1: GGCGGGGCGGAGCCATGCGCCCCCCCC
# DNA 2: GGGGGGGGCGCATGGCTCCGCCCCGCC
# Assays:
# SerRS [1] = target: T1, SerRS (Homo sapiens, UniProt P49591 1-514); test: SPR; HBS-EP pH 7.4, 1:1 fit; EMSA: 20 mM Tris-HCl pH 8.0, 60 mM KCl, 5 mM MgCl2, 0.1 mg/ml BSA, 10 ng/ul poly(dG-dC), 1 mM DTT, 30 min, room temperature; SPR: 10 mM HEPES pH 7.4, 150 mM NaCl, 0.005% P-20; footprint: 20 mM HEPES pH 7.9, 120 mM KCl, 8 mM MgCl2, 0.2 mM EDTA, 0.5 mM DTT, 0.2 mg/ml BSA, 10 ug/ml poly(dG-dC), 5% glycerol, room temperature; conditions: protein: recombinant; tags: C-terminal His tag (pET-20b); chain copies: 2; label: biotin; 3' overhang 3 nt on strand 1
# T1 sequence (P49591 whole entry): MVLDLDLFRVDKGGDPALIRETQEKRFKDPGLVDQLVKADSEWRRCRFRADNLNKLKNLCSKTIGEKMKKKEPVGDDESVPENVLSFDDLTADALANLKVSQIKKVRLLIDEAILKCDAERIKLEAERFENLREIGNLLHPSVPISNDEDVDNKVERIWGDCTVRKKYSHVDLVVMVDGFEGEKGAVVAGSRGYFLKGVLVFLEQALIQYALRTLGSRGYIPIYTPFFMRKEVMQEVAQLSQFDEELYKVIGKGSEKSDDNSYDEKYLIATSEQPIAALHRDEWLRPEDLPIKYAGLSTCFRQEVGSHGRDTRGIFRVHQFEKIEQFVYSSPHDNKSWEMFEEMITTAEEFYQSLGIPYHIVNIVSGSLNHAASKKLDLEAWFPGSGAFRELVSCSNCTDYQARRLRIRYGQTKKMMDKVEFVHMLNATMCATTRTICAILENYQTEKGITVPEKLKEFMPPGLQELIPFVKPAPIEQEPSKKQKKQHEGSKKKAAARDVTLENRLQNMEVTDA
# SerRS [2] = target: T1, SerRS; test: EMSA; minimal binding site; EMSA: 20 mM Tris-HCl pH 8.0, 60 mM KCl, 5 mM MgCl2, 0.1 mg/ml BSA, 10 ng/ul poly(dG-dC), 1 mM DTT, 30 min, room temperature; SPR: 10 mM HEPES pH 7.4, 150 mM NaCl, 0.005% P-20; footprint: 20 mM HEPES pH 7.9, 120 mM KCl, 8 mM MgCl2, 0.2 mM EDTA, 0.5 mM DTT, 0.2 mg/ml BSA, 10 ug/ml poly(dG-dC), 5% glycerol, room temperature; conditions: protein: recombinant; tags: C-terminal His tag (pET-20b); chain copies: 2; label: 5' 32P
# SerRS [3] = target: T1, SerRS; test: EMSA; interaction not affected; EMSA: 20 mM Tris-HCl pH 8.0, 60 mM KCl, 5 mM MgCl2, 0.1 mg/ml BSA, 10 ng/ul poly(dG-dC), 1 mM DTT, 30 min, room temperature; SPR: 10 mM HEPES pH 7.4, 150 mM NaCl, 0.005% P-20; footprint: 20 mM HEPES pH 7.9, 120 mM KCl, 8 mM MgCl2, 0.2 mM EDTA, 0.5 mM DTT, 0.2 mg/ml BSA, 10 ug/ml poly(dG-dC), 5% glycerol, room temperature; conditions: protein: recombinant; tags: C-terminal His tag (pET-20b); chain copies: 2; label: 5' 32P
# c-Myc;MAX = c-Myc;MAX (Homo sapiens;Homo sapiens, UniProt P01106;P61244 16-454;1-160, |); test: EMSA; competed off by SerRS at same concentrations; EMSA: 20 mM Tris-HCl pH 8.0, 60 mM KCl, 5 mM MgCl2, 0.1 mg/ml BSA, 10 ng/ul poly(dG-dC), 1 mM DTT, 30 min, room temperature; SPR: 10 mM HEPES pH 7.4, 150 mM NaCl, 0.005% P-20; footprint: 20 mM HEPES pH 7.9, 120 mM KCl, 8 mM MgCl2, 0.2 mM EDTA, 0.5 mM DTT, 0.2 mg/ml BSA, 10 ug/ml poly(dG-dC), 5% glycerol, room temperature; conditions: protein: recombinant;recombinant; tags: C-terminal His tag;C-terminal His tag; label: 5' 32P
# Sequence of c-Myc;MAX (P01106 16-454, chain 1 of 2): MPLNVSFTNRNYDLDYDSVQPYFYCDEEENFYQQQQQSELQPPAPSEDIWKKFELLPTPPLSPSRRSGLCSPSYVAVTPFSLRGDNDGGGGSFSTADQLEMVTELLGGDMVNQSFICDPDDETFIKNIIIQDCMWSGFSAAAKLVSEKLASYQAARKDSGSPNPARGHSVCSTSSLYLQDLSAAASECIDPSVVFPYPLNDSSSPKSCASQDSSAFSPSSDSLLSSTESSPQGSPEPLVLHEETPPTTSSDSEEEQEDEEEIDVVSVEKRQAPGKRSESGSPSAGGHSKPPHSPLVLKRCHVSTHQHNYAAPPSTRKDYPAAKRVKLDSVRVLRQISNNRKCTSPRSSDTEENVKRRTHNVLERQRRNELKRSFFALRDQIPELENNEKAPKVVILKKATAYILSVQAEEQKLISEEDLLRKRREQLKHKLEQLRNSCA
# Sequence of c-Myc;MAX (P61244 whole entry, chain 2 of 2): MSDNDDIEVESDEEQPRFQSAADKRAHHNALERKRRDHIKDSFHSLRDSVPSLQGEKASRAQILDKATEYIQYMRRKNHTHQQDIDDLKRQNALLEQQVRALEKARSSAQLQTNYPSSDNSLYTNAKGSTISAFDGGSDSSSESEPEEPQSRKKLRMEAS
# SerRS [4] = target: T1, SerRS; test: EMSA; 5 mM Mg2+; EMSA: 20 mM Tris-HCl pH 8.0, 60 mM KCl, 5 mM MgCl2, 0.1 mg/ml BSA, 10 ng/ul poly(dG-dC), 1 mM DTT, 30 min, room temperature; SPR: 10 mM HEPES pH 7.4, 150 mM NaCl, 0.005% P-20; footprint: 20 mM HEPES pH 7.9, 120 mM KCl, 8 mM MgCl2, 0.2 mM EDTA, 0.5 mM DTT, 0.2 mg/ml BSA, 10 ug/ml poly(dG-dC), 5% glycerol, room temperature; conditions: protein: recombinant; tags: C-terminal His tag (pET-20b); chain copies: 2; label: 5' 32P
# MAX = MAX (Homo sapiens, UniProt P61244 1-160); test: EMSA; MAX/MAX homodimer, not displaced by SerRS; EMSA: 20 mM Tris-HCl pH 8.0, 60 mM KCl, 5 mM MgCl2, 0.1 mg/ml BSA, 10 ng/ul poly(dG-dC), 1 mM DTT, 30 min, room temperature; SPR: 10 mM HEPES pH 7.4, 150 mM NaCl, 0.005% P-20; footprint: 20 mM HEPES pH 7.9, 120 mM KCl, 8 mM MgCl2, 0.2 mM EDTA, 0.5 mM DTT, 0.2 mg/ml BSA, 10 ug/ml poly(dG-dC), 5% glycerol, room temperature; conditions: protein: recombinant; tags: C-terminal His tag; chain copies: 2; label: 5' 32P
# Sequence of MAX (P61244 whole entry): as the sequence (P61244 whole entry, chain 2 of 2) above
binder,measurement,setting,value
B1,Kd,SerRS [1],265 nM
B2,binding result,SerRS [2],binds
B3,binding result,SerRS [3],binds
B4,binding result,c-Myc;MAX,binds
same,Kd,SerRS [4],212 nM
same,binding result,MAX,binds
